Assay results as given in the supplement of paper PMC10567573.

B1: PKD2L1 (parent)
chain: TLARCAKDILGFAVMFFIVFFAYA

Variants of: B1
Assay: protein stability index of a GFP-peptide fusion (GPS, HEK-293T) (PSI 1-6); higher = more stable
Settings: c terminus: a fixed tail appended
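Note: lentivirally expressed fusions sorted by FACS into six bins by GFP to DsRed ratio, PSI derived from sequencing read proportions per bin multiplied by bin number.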

Variant	protein stability index
TKARCAKDILGFAVMFFIVFFAYA	1.84
TMARCAKDILGFAVMFFIVFFAYA	3.8
TNARCAKDILGFAVMFFIVFFAYA	2.5
TPARCAKDILGFAVMFFIVFFAYA	3.29
TQARCAKDILGFAVMFFIVFFAYA	3.4
TRARCAKDILGFAVMFFIVFFAYA	3.68
TSARCAKDILGFAVMFFIVFFAYA	2.73
TTARCAKDILGFAVMFFIVFFAYA	4.12
TVARCAKDILGFAVMFFIVFFAYA	1.24
TWARCAKDILGFAVMFFIVFFAYA	1.67
TYARCAKDILGFAVMFFIVFFAYA	2.51
TLCRCAKDILGFAVMFFIVFFAYA	2.83
TLDRCAKDILGFAVMFFIVFFAYA	2.56
TLERCAKDILGFAVMFFIVFFAYA	3.11
TLGRCAKDILGFAVMFFIVFFAYA	1.71
TLHRCAKDILGFAVMFFIVFFAYA	2.4
TLIRCAKDILGFAVMFFIVFFAYA	4.3
TLKRCAKDILGFAVMFFIVFFAYA	2.74
TLLRCAKDILGFAVMFFIVFFAYA	1.75
TLNRCAKDILGFAVMFFIVFFAYA	1.53
TLPRCAKDILGFAVMFFIVFFAYA	2.64
TLQRCAKDILGFAVMFFIVFFAYA	2.7
TLRRCAKDILGFAVMFFIVFFAYA	1.81
TLTRCAKDILGFAVMFFIVFFAYA	3.62

Variant	protein stability index
TLVRCAKDILGFAVMFFIVFFAYA	1.94
TLWRCAKDILGFAVMFFIVFFAYA	1.87
TLYRCAKDILGFAVMFFIVFFAYA	4.87
TLAACAKDILGFAVMFFIVFFAYA	2.72
TLACCAKDILGFAVMFFIVFFAYA	2.28
TLAFCAKDILGFAVMFFIVFFAYA	2.68
TLAGCAKDILGFAVMFFIVFFAYA	3.84
TLAICAKDILGFAVMFFIVFFAYA	2.64
TLAKCAKDILGFAVMFFIVFFAYA	2.6
TLALCAKDILGFAVMFFIVFFAYA	3.07
TLANCAKDILGFAVMFFIVFFAYA	2.79
TLAPCAKDILGFAVMFFIVFFAYA	2.65
TLAQCAKDILGFAVMFFIVFFAYA	2.37
TLAVCAKDILGFAVMFFIVFFAYA	4.36
TLAWCAKDILGFAVMFFIVFFAYA	3.31
TLAYCAKDILGFAVMFFIVFFAYA	3.28
TLARAAKDILGFAVMFFIVFFAYA	2.49
TLARDAKDILGFAVMFFIVFFAYA	2.61
TLAREAKDILGFAVMFFIVFFAYA	2.09
TLARFAKDILGFAVMFFIVFFAYA	4.37
TLARGAKDILGFAVMFFIVFFAYA	2.59
TLARHAKDILGFAVMFFIVFFAYA	1.6
TLARIAKDILGFAVMFFIVFFAYA	3
TLARKAKDILGFAVMFFIVFFAYA	2.48

Variant	protein stability index
TLARLAKDILGFAVMFFIVFFAYA	2.78
TLARMAKDILGFAVMFFIVFFAYA	3.55
TLARNAKDILGFAVMFFIVFFAYA	1.9
TLARPAKDILGFAVMFFIVFFAYA	1.71
TLARQAKDILGFAVMFFIVFFAYA	2.29
TLARRAKDILGFAVMFFIVFFAYA	2.01
TLARSAKDILGFAVMFFIVFFAYA	2.27
TLARTAKDILGFAVMFFIVFFAYA	4.06
TLARVAKDILGFAVMFFIVFFAYA	2.5
TLARYAKDILGFAVMFFIVFFAYA	2.22
TLARCCKDILGFAVMFFIVFFAYA	2.87
TLARCEKDILGFAVMFFIVFFAYA	3.58
TLARCFKDILGFAVMFFIVFFAYA	2.64
TLARCGKDILGFAVMFFIVFFAYA	1.59
TLARCHKDILGFAVMFFIVFFAYA	2.59
TLARCIKDILGFAVMFFIVFFAYA	2.69
TLARCKKDILGFAVMFFIVFFAYA	3.02
TLARCLKDILGFAVMFFIVFFAYA	4.57
TLARCMKDILGFAVMFFIVFFAYA	2.09
TLARCNKDILGFAVMFFIVFFAYA	3.44
TLARCPKDILGFAVMFFIVFFAYA	3.24
TLARCTKDILGFAVMFFIVFFAYA	3
TLARCVKDILGFAVMFFIVFFAYA	2.95
TLARCWKDILGFAVMFFIVFFAYA	2.75

Variant	protein stability index
TLARCYKDILGFAVMFFIVFFAYA	3.06
TLARCAADILGFAVMFFIVFFAYA	2.16
TLARCADDILGFAVMFFIVFFAYA	3.17
TLARCAEDILGFAVMFFIVFFAYA	2.36
TLARCAFDILGFAVMFFIVFFAYA	2.78
TLARCAGDILGFAVMFFIVFFAYA	2.45
TLARCAHDILGFAVMFFIVFFAYA	3.13
TLARCAIDILGFAVMFFIVFFAYA	2.36
TLARCAMDILGFAVMFFIVFFAYA	2.47
TLARCAPDILGFAVMFFIVFFAYA	2.84
TLARCAQDILGFAVMFFIVFFAYA	3.71
TLARCARDILGFAVMFFIVFFAYA	2.29
TLARCATDILGFAVMFFIVFFAYA	2.83
TLARCAVDILGFAVMFFIVFFAYA	4.08
TLARCAWDILGFAVMFFIVFFAYA	2.57
TLARCAYDILGFAVMFFIVFFAYA	3.79
TLARCAKAILGFAVMFFIVFFAYA	2.77
TLARCAKCILGFAVMFFIVFFAYA	2.56
TLARCAKEILGFAVMFFIVFFAYA	2.21
TLARCAKFILGFAVMFFIVFFAYA	2.33
TLARCAKGILGFAVMFFIVFFAYA	2.75
TLARCAKHILGFAVMFFIVFFAYA	2.66
